Experimental data from PMC9273042 (Science Immunology, 2022).

Assays:
Settings in all cases: both partners purified
SARS-CoV-2 S 6P trimer = SARS-CoV-2 S 6P trimer (SARS-CoV-2, Wuhan-Hu-1/WA1 type, S-6P, stabilised); assay: cryo-EM structure
[1] = target: soluble RBD (WA1/2020 variant) (SARS-CoV-2, WA1/2020, UniProt P0DTC2); assay: SPR
[2] = target: Trimer Spike (soluble, WA1/2020 variant) (SARS-CoV-2, WA1/2020, UniProt P0DTC2); assay: SPR
RBD, UK variant (Alpha) = target: T1, RBD, UK variant (Alpha) (SARS-CoV-2, UniProt P0DTC2); assay: ELISA
T1 construct: source: bought: SinoBio

RBD, SA variant (Beta) = target: T2, RBD, SA variant (Beta) (SARS-CoV-2, UniProt P0DTC2); assay: ELISA
T2 construct: source: bought: SinoBio

[3] = target: T3, RBD, REF variant (Wuhan-1) (SARS-CoV-2, UniProt P0DTC2); assay: ELISA
T3 construct: source: bought: SinoBio

Binder	stoichiometry N (SARS-CoV-2 S 6P trimer)	Kd [1] [nM]	koff [1] [s⁻¹]	kon [1] [M⁻¹ s⁻¹]	Kd [2] [nM]	koff [2] [s⁻¹]	kon [2] [M⁻¹ s⁻¹]	percent inhibition of ACE2 binding (RBD, UK variant (Alpha)) [%]	percent inhibition of ACE2 binding (RBD, SA variant (Beta)) [%]	percent inhibition of ACE2 binding [3] [%]
IMM20184 Fab (Fab, V domains shown, Fab of m1) VH: EVQLVESGGGLVQPGGSLRLSCSASGFTFSSFWMSWVRQAPGKGLEWVATIREDGSEKYYVDSVKGRFSISRDNAKNSLYLQMNSLRAEDTAVYYCARSKWLRGSFDYWGQGTLVTVSS VL: NFMLTQPHSVSESPGKTVTISCTRRSGSIASNYVQWYQQRPGSAPTTVIYEDNQRPSGVPDRFSGSIDSSSNSASLTISGLQTEDEADYYCQSYDSSNPPGASWVFGGGTKLTVL	3 Fab:Trimer									
IMM20184 (antibody, V domains shown) VH: EVQLVESGGGLVQPGGSLRLSCSASGFTFSSFWMSWVRQAPGKGLEWVATIREDGSEKYYVDSVKGRFSISRDNAKNSLYLQMNSLRAEDTAVYYCARSKWLRGSFDYWGQGTLVTVSS VL: NFMLTQPHSVSESPGKTVTISCTRRSGSIASNYVQWYQQRPGSAPTTVIYEDNQRPSGVPDRFSGSIDSSSNSASLTISGLQTEDEADYYCQSYDSSNPPGASWVFGGGTKLTVL		2.2	0.00131	595000	7.35	0.000229	31200			
IMM20253 (antibody, V domains shown) VH: QVQLVESGGGVVQPGRSLRLSCTASGFTFSTYGMHWVRQAPGKGLEWVAVISYDGSSKHYAESVKGRFTISRDNSNNTLYLQMNRLRAEDTAVYYCARDGQPPGWGNYFDYWGQGTLVTVAS VL: SYVLTQPPSVSVAPGKTARITCGGNGIGSKSVYWYQQKPGQAPEVVVYDDSDRPSGIPERFSGSNSGNTATLTISRVEAGDEADYYCQVWDSSSDPWVFGGGTKLTVL		0.157	0.000218	1.39e+06	1.44	0.000117	81300	≤ 40	≤ 40	≤ 40
IMM20253 Fab (Fab, V domains shown, Fab of m3) VH: QVQLVESGGGVVQPGRSLRLSCTASGFTFSTYGMHWVRQAPGKGLEWVAVISYDGSSKHYAESVKGRFTISRDNSNNTLYLQMNRLRAEDTAVYYCARDGQPPGWGNYFDYWGQGTLVTVAS VL: SYVLTQPPSVSVAPGKTARITCGGNGIGSKSVYWYQQKPGQAPEVVVYDDSDRPSGIPERFSGSNSGNTATLTISRVEAGDEADYYCQVWDSSSDPWVFGGGTKLTVL	1 Fab:Trimer									
IMM20190 (antibody, V domains shown) VH: EVQLVESGGGLVQPGGSLRLSCSASGFTVSSNYMSWVRQAPRKGLEWVSVIYAGGSTFYADSVKGRFTISRDNSKNTLLLQMNSLRAEDTAVYYCARDRGGYLDYWGQGTLVTVSS VL: DIQMTQSPSSLSASVGDRVTITCRASQGISNYLAWYQQKPGKVPKLLIYAASTLQSGVPSRFSGSGSGTDFTLTISSLQPEDVATYYCQKYNSAPGLTFGGGTKVEIK		1.87	0.000376	202000	6.59	0.000195	29500			
IMM20190 Fab (Fab, V domains shown, Fab of m2) VH: EVQLVESGGGLVQPGGSLRLSCSASGFTVSSNYMSWVRQAPRKGLEWVSVIYAGGSTFYADSVKGRFTISRDNSKNTLLLQMNSLRAEDTAVYYCARDRGGYLDYWGQGTLVTVSS VL: DIQMTQSPSSLSASVGDRVTITCRASQGISNYLAWYQQKPGKVPKLLIYAASTLQSGVPSRFSGSGSGTDFTLTISSLQPEDVATYYCQKYNSAPGLTFGGGTKVEIK	3 Fab:Trimer									
